Source: publication PMC11187910
Each block holds one substance with its values, some of them ahead of it.

Columns and labels:
IDH1 = IDH1 (UniProt O75874); assay: co-IP of Flag-IDH1 and HA-IDH1; conditions: reference: Flag-IDH1 wild type, MPA; sites T77
OCT6 (POU3F1) = OCT6 (POU3F1) (UniProt Q03052); assay: co-immunoprecipitation; conditions: reference: wild type, MPA; sites T77
isocitrate (ICT) = assay: SPR; conditions: 1:1 binding model

UniProt O75874, sequence (O75874 whole entry T77A): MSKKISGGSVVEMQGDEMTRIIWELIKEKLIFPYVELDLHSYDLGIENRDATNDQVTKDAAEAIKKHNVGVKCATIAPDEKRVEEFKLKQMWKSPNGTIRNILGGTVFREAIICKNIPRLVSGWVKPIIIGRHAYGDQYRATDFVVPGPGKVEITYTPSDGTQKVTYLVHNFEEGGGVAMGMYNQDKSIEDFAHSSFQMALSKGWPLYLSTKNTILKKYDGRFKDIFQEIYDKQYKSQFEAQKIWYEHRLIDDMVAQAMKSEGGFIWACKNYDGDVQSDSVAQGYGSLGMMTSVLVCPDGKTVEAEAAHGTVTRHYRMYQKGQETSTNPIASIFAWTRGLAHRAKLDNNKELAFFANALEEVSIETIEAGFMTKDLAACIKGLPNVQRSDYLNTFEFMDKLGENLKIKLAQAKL

binding against the reference (IDH1): weaker
Substance: IDH1 (from UniProt O75874) Flag-IDH1 T77A, MPA

binding against the reference (OCT6 (POU3F1)): weaker
Substance: IDH1 (from UniProt O75874) T77A, MPA

Kd (isocitrate (ICT)): 112 nM
Substance: recombinant IDH1 WT T77A
